# B1: A8H, A22K(N^ε-Octadecandioyl-γGlu-[2-(2-{2-[2-(2-aminoethoxy)ethoxy]acetylamino}ethoxy)ethoxy]-acetyl), B29R, desB30 human insulin (ligand)
# chain 1: GIVEQCCHSICSLYQLENYCNK
# chain 2: FVNQHLCGSHLVEALYLVCGERGFFYTPR
# modifications: A22K(N^ε-Octadecandioyl-γGlu-[2-(2-{2-[2-(2-aminoethoxy)ethoxy]acetylamino}ethoxy)ethoxy]-acetyl)
# notes: also called C18-gGlu-OEG-OEG, A8H, A22K, B29R
# B2: A14E, A22K(N^ε-Eicosanedioyl-γGlu-γGlu-(3-[2-(2-{2-[2-(2-{2-[2-(2-aminoethoxy)ethoxy]ethoxy}ethoxy)ethoxy]ethoxy}ethoxy)ethoxy]propionyl)), B25H, B29R, desB30 … (ligand)
# chain 1: GIVEQCCTSICSLEQLENYCNK
# chain 2: FVNQHLCGSHLVEALYLVCGERGFHYTPR
# modifications: A22K(N^ε-Eicosanedioyl-γGlu-γGlu-(3-[2-(2-{2-[2-(2-{2-[2-(2-aminoethoxy)ethoxy]ethoxy}ethoxy)ethoxy]ethoxy}ethoxy)ethoxy]propionyl))
# notes: also called C20-gGlu-gGlu-PEG7, A14E, A22K, B25H, B29R
# B3: A14E, A22K(N^ε-Eicosanedioyl-γGlu-(3-(2-{2-[2-(2-aminoethoxy)ethoxy]ethoxy}ethoxy)propionyl)), B25H, B29R, desB30 human insulin (ligand)
# chain 1: GIVEQCCTSICSLEQLENYCNK
# chain 2: FVNQHLCGSHLVEALYLVCGERGFHYTPR
# modifications: A22K(N^ε-Eicosanedioyl-γGlu-(3-(2-{2-[2-(2-aminoethoxy)ethoxy]ethoxy}ethoxy)propionyl))
# notes: also called C20-gGlu-PEG3, A14E, A22K, B25H, B29R
# B4: A14E, A22K(N^ε-Octadecandioyl-γGlu-(3-(2-{2-[2-(2-aminoethoxy)ethoxy]ethoxy}ethoxy)propionyl)-γGlu), B25H, B29R, desB30 human insulin (ligand)
# chain 1: GIVEQCCTSICSLEQLENYCNK
# chain 2: FVNQHLCGSHLVEALYLVCGERGFHYTPR
# modifications: A22K(N^ε-Octadecandioyl-γGlu-(3-(2-{2-[2-(2-aminoethoxy)ethoxy]ethoxy}ethoxy)propionyl)-γGlu)
# notes: also called C18-gGlu-PEG3-gGlu, A14E, A22K, B25H, B29R
# B5: A14E, A22K(N^ε-[2-(2-[2-(2-[2-(Octadecandioyl-γGlu)amino]ethoxy)ethoxy]acetylamino)ethoxy]ethoxy)-acetyl]), B25H, B29R, desB30 human insulin (ligand)
# chain 1: GIVEQCCTSICSLEQLENYCNK
# chain 2: FVNQHLCGSHLVEALYLVCGERGFHYTPR
# modifications: A22K(N^ε-[2-(2-[2-(2-[2-(Octadecandioyl-γGlu)amino]ethoxy)ethoxy]acetylamino)ethoxy]ethoxy)-acetyl])
# notes: also called C18-gGlu-OEG-OEG, A14E, A22K, B25H, B29R
# B6: A18L, A22K(N^ε-Octadecandioyl-γGlu-[2-(2-{2-[2-(2-aminoethoxy)ethoxy]acetylamino}ethoxy)ethoxy]-acetyl), B29R, desB30 human insulin (ligand)
# chain 1: GIVEQCCTSICSLYQLELYCNK
# chain 2: FVNQHLCGSHLVEALYLVCGERGFFYTPR
# modifications: A22K(N^ε-Octadecandioyl-γGlu-[2-(2-{2-[2-(2-aminoethoxy)ethoxy]acetylamino}ethoxy)ethoxy]-acetyl)
# notes: also called C18-gGlu-OEG-OEG, A18L, A22K, B29R
# B7: A14E, A22K(N^ε-Octadecandioyl-γGlu-(3-[2-(2-{2-[2-(2-{2-[2-(2-aminoethoxy)ethoxy]ethoxy}ethoxy)ethoxy]ethoxy}ethoxy)ethoxy]propionyl)), B25H, B29R, desB30 … (ligand)
# chain 1: GIVEQCCTSICSLEQLENYCNK
# chain 2: FVNQHLCGSHLVEALYLVCGERGFHYTPR
# modifications: A22K(N^ε-Octadecandioyl-γGlu-(3-[2-(2-{2-[2-(2-{2-[2-(2-aminoethoxy)ethoxy]ethoxy}ethoxy)ethoxy]ethoxy}ethoxy)ethoxy]propionyl))
# notes: also called C18-gGlu-PEG7, A14E, A22K, B25H, B29R
# How the values were obtained:
# [1] = target: T1, purified recombinant human insulin receptor (IR-A) (human, UniProt P06213-2 28-1370, limits assumed); assay: SPA competition, displacement of A14Tyr[125I]-human insulin from human insulin receptor, 0% HSA; relative to desB30 human insulin = 100%
# T1 construct: The receptor was captured on SPA beads through the F12 antibody
# Procedure: (§1) The affinity of the acylated insulin analogues of this invention for the human insulin receptor is determined by a SPA assay (Scintillation Proximity Assay) microtiterplate antibody capture assay. […] A total of 100 μl reagent mix is then added to each well in the Packard Optiplate and a dilution series of the insulin derivative is made in the Optiplate from appropriate samples. The samples are then incubated for 16 hours while gently shaken. The phases are the then separated by centrifugation for 1 min and the plates counted in a Topcounter. The binding data were fitted using the nonlinear regression algorithm in the GraphPad Prism 2.01 (GraphPad Software, San Diego, Calif.).
# [2] = target: T1, purified recombinant human insulin …; assay: SPA competition, displacement of A14Tyr[125I]-human insulin from human insulin receptor, 4.5% HSA; relative to desB30 human insulin = 100%
# Procedure: as §1
Binder,IR-A affinity (0% HSA) [1] [%],IR-A affinity (4.5% HSA) [2] [%]
B1,417,63
B2,25,
B3,,5.2
B4,23,
B5,22.4,5
B6,339,23.6
B7,28,

# Source: patent US20110098440A1 (Novo Nordisk, published 2011)
